# From the supplement of paper PMC10567573
# B1: ZBED2 (parent)
# chain: RAGHHPNQYATCRLCGRQVSRGPG
# Variants of: B1
# Experiment: protein stability index of a GFP-peptide fusion (GPS, HEK-293T) (PSI 1-6); higher = more stable
# Settings: c terminus: a fixed tail appended
# 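Also: lentivirally expressed fusions sorted by FACS into six bins by GFP to DsRed ratio, PSI derived from sequencing read proportions per bin multiplied by bin number.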
row,Variant,protein stability index
1,Q8H,1.9
2,Q8D,3.31
3,Q8F,2.11
4,Q8I,1.57
5,C12H,2.49
6,R21I,2.35
7,R21S,1.65
8,R21H,2.04
9,S20Q,2.21
10,S20G,1.78
11,R13T,2.4
12,Q18H,2.59
13,Q18M,2.17
14,Q18A,2.44
15,C15P,3.18
16,C15L,1.85
17,G24K,2.03
18,G24F,1.17
19,R1L,1.78

row,Variant,protein stability index
1,R1T,2.07
2,G3K,2.66
3,L14P,1.82
4,L14Q,1.15
5,A2N,2.11
6,A2H,1.78
7,A2E,2.33
8,T11M,3.7
9,T11E,2.84
10,A10H,2.02
11,A10V,1.43
12,A10F,2.67
13,A10I,1.43
14,P6S,1.72
15,P6N,1.72
16,R17Q,1.3
17,R17D,2.96
18,R17K,3.01
19,P23M,1.77
